From US20230151104A1 (REMD BIOTHERAPEUTICS, published 2023)
Changes are numbered by the printed parent chain. Where “and” joins values, the source holds several entries; their conditions need not be identical. Equal values may be shown once.

B1: humanized IgG 2 (VH1/VL2) (antibody)
heavy: not shown
light: DIVMTQSPLSLPVTPGEPVSISCRSSKSLLHSNGNTYLYWFLQKPGQSPQLLIYRMSNLASGVPDRFSGSGSGTDFTLKISRVEAEDVGVYYCMQHVEYPLTFGGGTKLEIKRTVAAPSVFIFPPSDEQLKSGTASVVCLLNNFYPREAKVQWKVDNALQSGNSQESVTEQDSKDSTYSLSSTLTLSKADYEKHKVYACEVTHQGLSSPVTKSFNRGEC
notes: Full-length humanized IgG; also called H1/L2
B2: humanized IgG 3 (VH1/VL3) (antibody)
heavy: not shown
light: B1 light with P8A
notes: Full-length humanized IgG; also called H1/L3
B3: humanized IgG 1 (VH1/VL1) (antibody, V domains shown)
VH: QVQLVQSGAEVKKPGASVKVSCKASGYAFTDFHLNWVRQAPGQGLEWMGVINPYNGGTNYNQKFKDRVTMTRDTSISTAYMELSRLRSDDTAVYYCARYYASRYGYAMDYWGQGTLVTVSS
VL: DIVMTQSPLSLPVTPGEPASISCRSSKSLLHSNGNTYLYWYLQKPGQSPQLLIYRMSNLASGVPDRFSGSGSGTDFTLKISRVEAEDVGVYYCMQHVEYPLTFGGGTKLEIKR
notes: Full-length humanized IgG; also called H1/L1
B4: murine-human chimeric IgG1 derived from mAb 201D10A12C1 (A15) (antibody, V domains shown)
VH: EVQLQQSGPVLVRPGASVKMSCKASGYAFTDFHLNWVKQSHGKSLEWIGVINPYNGGTNYNQKFKDKATLTVDKSSSTAYMELNRLTSEDSAVYYCARYYASRYGYAMDYWGQGTSVTVSS
VL: DIVMTQAAPSVPVTPGESVSISCRSSKSLLHSNGNTYLYWFLQRPGQSPQLLIYRMSNLASGVPDRFSGSGSGTAFTLRISRVEAEDVGIYYCMQHVEYPLTFGAGTKLELKR
notes: also called Chimeric (VH/VL); 4 Chimeric (VH/VL)
B5: murine mAb 132F3F3H11 ("A8") (antibody, V domains shown)
VH: DVQLVESGGGLVQPGGSRKLSCAASGFTFSSSGMHWVRQAPEKGLEWVAYISSGSSSIYYADTVKGRFTISRDNPKNTLFLQMTSLRSEDTAMYYCARPYYYGSIAMDYWGQGTSVTVSS
VL: DIKMTQSPSSMYASLGERVTITCKASQDINSYLSWFQQKPGKSPKTLIYRANRLVDGVPSRFSGSGSGQDYSLTISSLEYEDMGIYYCLQYDEFPFTFGSGTKLEIK
B6: murine mAb 201D10A12C1 ("A15") (antibody, V domains shown)
VH: B4 VH
VL: DIVMTQAAPSVPVTPGESVSISCRSSKSLLHSNGNTYLYWFLQRPGQSPQLLIYRMSNLASGVPDRFSGSGSGTAFTLRISRVEAEDVGIYYCMQHVEYPLTFGAGTKLELK
B7: murine mAb 201D10E9F2 ("A17") (antibody, V domains shown)
VH: B4 VH
VL: B6 VL
B8: humanized antibody VH4/VL2 (antibody, V domains shown)
VH: B3 VH with V20M, A40S, P41H, M48I, M70L, R72V
VL: DIVMTQSPLSLPVTPGEPVSISCRSSKSLLHSNGNTYLYWFLQKPGQSPQLLIYRMSNLASGVPDRFSGSGSGTDFTLKISRVEAEDVGVYYCMQHVEYPLTFGGGTKLEIK
notes: Expressed as full-length IgG in Expi293F cells and tested as supernatant
B9: humanized antibody VH3/VL2 (antibody, V domains shown)
VH: B3 VH with A40S, P41H, M48I, M70L, R72V
VL: B8 VL
notes: as for B8
B10: humanized antibody VH5/VL1 (antibody, V domains shown)
VH: B3 VH with V20M, R38K, A40S, P41H, M48I, M70L, R72V
VL: B8 VL with V19A, F41Y
notes: as for B8
B11: humanized antibody VH5/VL2 (antibody, V domains shown)
VH: B3 VH with V20M, R38K, A40S, P41H, M48I, M70L, R72V
VL: B8 VL
notes: as for B8
B12: humanized antibody VH2/VL1 (antibody, V domains shown)
VH: B3 VH with A40S, M48I, M70L, R72V
VL: B8 VL with V19A, F41Y
notes: as for B8
B13: humanized antibody VH6/VL2 (antibody, V domains shown)
VH: B3 VH with V20M, R38K, A40S, P41H, M48I, V68A, M70L, R72V, T91S
VL: B8 VL
notes: as for B8
B14: humanized antibody VH3/VL3 (antibody, V domains shown)
VH: B3 VH with A40S, P41H, M48I, M70L, R72V
VL: B8 VL with P8A
notes: as for B8
B15: humanized antibody VH4/VL3 (antibody, V domains shown)
VH: B3 VH with V20M, A40S, P41H, M48I, M70L, R72V
VL: B8 VL with P8A
notes: as for B8
B16: humanized antibody VH6/VL3 (antibody, V domains shown)
VH: B3 VH with V20M, R38K, A40S, P41H, M48I, V68A, M70L, R72V, T91S
VL: B8 VL with P8A
notes: as for B8
B17: humanized antibody VH3/VL1 (antibody, V domains shown)
VH: B3 VH with A40S, P41H, M48I, M70L, R72V
VL: B8 VL with V19A, F41Y
notes: as for B8
B18: humanized antibody VH2/VL3 (antibody, V domains shown)
VH: B3 VH with A40S, M48I, M70L, R72V
VL: B8 VL with P8A
notes: as for B8
B19: humanized antibody VH2/VL2 (antibody, V domains shown)
VH: B3 VH with A40S, M48I, M70L, R72V
VL: B8 VL
notes: as for B8
B20: humanized antibody VH5/VL3 (antibody, V domains shown)
VH: B3 VH with V20M, R38K, A40S, P41H, M48I, M70L, R72V
VL: B8 VL with P8A
notes: as for B8
B21: humanized antibody VH4/VL1 (antibody, V domains shown)
VH: B3 VH with V20M, A40S, P41H, M48I, M70L, R72V
VL: B8 VL with V19A, F41Y
notes: as for B8
B22: humanized antibody VH6/VL1 (antibody, V domains shown)
VH: B3 VH with V20M, R38K, A40S, P41H, M48I, V68A, M70L, R72V, T91S
VL: B8 VL with V19A, F41Y
notes: as for B8

target: T1, human CXCR4 (hCXCR4), on CXCR4-positive cell line "CXCR4 E4" (human, UniProt P61073-2 2-356); test: FACS binding confirmation with purified IgG on CXCR4-expressing cells
T1 construct: FACS target: 'Positive cells lines (CXCR4 E4)'; also called chemokine receptor 4; HuCXCR4
T1 sequence (P61073 other isoform, or with tags, fused parts or gaps): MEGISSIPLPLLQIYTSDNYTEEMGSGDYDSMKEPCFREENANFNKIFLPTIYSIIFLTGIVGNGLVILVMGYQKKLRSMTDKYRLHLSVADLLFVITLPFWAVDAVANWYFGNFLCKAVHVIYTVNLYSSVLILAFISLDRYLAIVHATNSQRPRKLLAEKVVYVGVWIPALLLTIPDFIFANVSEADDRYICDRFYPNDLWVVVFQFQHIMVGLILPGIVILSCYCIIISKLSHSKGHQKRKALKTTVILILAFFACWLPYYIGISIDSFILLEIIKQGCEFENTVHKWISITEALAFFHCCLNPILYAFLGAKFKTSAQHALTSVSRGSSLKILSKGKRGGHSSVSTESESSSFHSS

| EC50 | Binder |
| --- | --- |
| 1.72 µg/mL | B1 |
| 2.35 µg/mL | B2 |
| 1.6 µg/mL | B3 |
| 1.8 µg/mL | B4 |

target: tagged CXCR4 receptors stably expressed on recombinant CHO cells (human, UniProt P61072 1-352 (Pan troglodytes entry)); test: cell-based or functional assay
Sequence (P61072 other isoform, or with tags, fused parts or gaps): as the sequence (P61073 other isoform, or with tags, fused parts or gaps) above

| HuCXCR4 Binding IC50 (nM) (CXCR4 cAMP functional assay, antagonist mode against 5.0 nM SDF-1) | Binder |
| --- | --- |
| 0.381 nM | B5 |
| 1.18 nM | B6 |
| 1.48 nM | B7 |

target: T1, human CXCR4 (hCXCR4), on CXCR4-positive …; test: FACS on CXCR4 E4 cells; serial dilution of Expi293F supernatant; anti-human IgG Alexa Fluor 647
Experimental: The DNA sequences encoding the chimeric antibody and humanized IgG heavy and light chains were synthesized and inserted into pCDNA3.4 vector to construct the expression plasmids of full-length IgGs. 18 humanized Abs were expressed in Expi293F cell culture, and then the cells were spun down. For affinity ranking, the supernatants were assayed by FACS against cell lines for the assessment of binding activity. Positive cells lines (CXCR4 E4) were cultured following the protocol and harvested by centrifugation. About 1×10⁵cells per well were washed with 1*PBS and incubated in a serial dilution of antibodies for 30 minutes at 4° C. After washing with PBS, secondary antibody [1 μg/ml Alexa Fluor® 647 AffiniPure Goat Anti-Human IgG (H+L)] was added to the cells and incubated in PBS for 30 minutes at 4° C. After washing with PBS, cells were analyzed for binding by using FACS Calibur (BD Bioscience, San Jose, Calif.) and Flowjo software. The antibodies were ranked by EC50.

| EC50 | Binder |
| --- | --- |
| 2.19 µg/mL and 14.6 nM | B1 |
| 2.27 µg/mL and 15.2 nM | B2 |
| 1.72 µg/mL and 11.5 nM | B3 |
| 1.56 µg/mL and 10.4 nM | B4 |
| 1.99 µg/mL and 13.2 nM | B8 |
| 2.93 µg/mL and 19.5 nM | B9 |
| 0.375 µg/mL and 2.5 nM | B10 |
| 1.61 µg/mL and 10.7 nM | B11 |
| 5.37 µg/mL and 35.8 nM | B12 |
| 1.94 µg/mL and 13 nM | B13 |
| 2.82 µg/mL and 18.8 nM | B14 |
| 1.97 µg/mL and 13.2 nM | B15 |
| 2.86 µg/mL and 19.1 nM | B16 |
| 4.18 µg/mL and 27.9 nM | B17 |
| 8.35 µg/mL and 55.7 nM | B18 |
| 4.82 µg/mL and 32.1 nM | B19 |
| 1.93 µg/mL and 12.8 nM | B20 |
| 2.39 µg/mL and 16 nM | B21 |
| 1.45 µg/mL and 9.65 nM | B22 |
